Patent US20090130692A1

T1: human plasmin (Human), P00747
T1 chain: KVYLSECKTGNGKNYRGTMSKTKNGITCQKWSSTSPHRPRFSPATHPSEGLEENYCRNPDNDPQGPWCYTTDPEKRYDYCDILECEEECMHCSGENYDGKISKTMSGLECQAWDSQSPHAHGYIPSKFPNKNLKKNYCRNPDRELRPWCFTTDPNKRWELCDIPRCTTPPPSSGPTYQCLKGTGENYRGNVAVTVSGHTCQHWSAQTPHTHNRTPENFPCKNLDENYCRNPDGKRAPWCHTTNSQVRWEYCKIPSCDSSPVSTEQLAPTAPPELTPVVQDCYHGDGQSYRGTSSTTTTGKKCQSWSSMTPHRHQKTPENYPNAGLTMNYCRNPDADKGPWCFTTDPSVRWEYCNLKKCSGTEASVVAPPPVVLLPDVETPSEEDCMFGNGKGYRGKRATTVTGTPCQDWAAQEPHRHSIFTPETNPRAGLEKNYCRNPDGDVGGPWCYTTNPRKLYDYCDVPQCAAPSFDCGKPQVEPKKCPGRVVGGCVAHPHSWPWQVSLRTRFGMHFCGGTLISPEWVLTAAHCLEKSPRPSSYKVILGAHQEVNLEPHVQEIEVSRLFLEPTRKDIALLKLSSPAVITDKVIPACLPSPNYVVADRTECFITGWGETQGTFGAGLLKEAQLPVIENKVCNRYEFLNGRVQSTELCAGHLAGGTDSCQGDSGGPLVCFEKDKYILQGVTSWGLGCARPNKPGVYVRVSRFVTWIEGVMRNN

T2: porcine trypsin (Porcine), P00761
T2 chain: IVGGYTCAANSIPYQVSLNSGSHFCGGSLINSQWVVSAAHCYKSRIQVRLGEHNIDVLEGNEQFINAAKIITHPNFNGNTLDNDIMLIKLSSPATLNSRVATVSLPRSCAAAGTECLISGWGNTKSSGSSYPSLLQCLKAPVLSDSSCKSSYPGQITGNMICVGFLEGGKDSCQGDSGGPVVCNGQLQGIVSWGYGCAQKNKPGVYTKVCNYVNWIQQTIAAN


biological target: hK3 (human kallikrein) (Human), P07288; experiment: enzyme inhibition, selectivity panel; apparent Ki (Kiapp)
Sequence (P07288 25-261): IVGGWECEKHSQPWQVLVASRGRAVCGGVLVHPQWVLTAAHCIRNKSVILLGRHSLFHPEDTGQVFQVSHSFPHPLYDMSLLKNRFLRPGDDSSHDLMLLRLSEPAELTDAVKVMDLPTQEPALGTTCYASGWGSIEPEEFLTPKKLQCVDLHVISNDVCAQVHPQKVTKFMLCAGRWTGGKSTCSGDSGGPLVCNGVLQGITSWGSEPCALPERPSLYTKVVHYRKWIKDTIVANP

Row | Ki [nM] | Binder
1 | 100 | GVCPRILKKCRRDSDCPGACICRGNGYCG (modifications not checked) [MCoTI-R]

Biological target: T1, human plasmin (Human), P00747
Experiment: as above

Row | Ki [nM] | Binder
2 | 600 | GVCPKILKKCRRDSDCLAGCVCGPNGFCGS (modifications not checked) [SE-MG-0]
3 | 400 | KKVGVCPKILKKCRRDSDCPGACICRGNGYCG (modifications not checked) [MCoTI-KKV]

biological target: human tryptase β-II (Human), P20231; experiment: as above
Sequence (P20231 31-275 limits assumed): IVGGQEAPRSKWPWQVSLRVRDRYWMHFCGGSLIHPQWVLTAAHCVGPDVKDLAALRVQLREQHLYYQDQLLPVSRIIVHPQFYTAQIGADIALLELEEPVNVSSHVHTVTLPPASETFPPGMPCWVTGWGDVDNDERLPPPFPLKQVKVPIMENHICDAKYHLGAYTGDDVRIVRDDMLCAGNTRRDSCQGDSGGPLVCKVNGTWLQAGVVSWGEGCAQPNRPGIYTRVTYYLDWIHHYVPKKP

Row | Ki [nM] | Binder
4 | 70 | GVCPKILKKCRRDSDCLAGCVCGPNGFCGS (modifications not checked) [SE-MG-0]
5 | 4 | KKVGVCPKILKKCRRDSDCPGACICRGNGYCG (modifications not checked) [MCoTI-KKV]
6 | 40 | GVCPRILKKCRRDSDCPGACICRGNGYCG (modifications not checked) [MCoTI-R]

biological target: human tryptase β-Ia (Human), Q15661; experiment: as above
Sequence (Q15661 31-275 limits assumed): as the sequence (P20231 31-275 limits assumed) above, with R21H, D22G, R23P counted along it

Row | Ki [nM] | Binder
7 | 70 | GVCPKILKKCRRDSDCLAGCVCGPNGFCGS (modifications not checked) [SE-MG-0]
8 | 3 | KKVGVCPKILKKCRRDSDCPGACICRGNGYCG (modifications not checked) [MCoTI-KKV]
9 | 40 | GVCPRILKKCRRDSDCPGACICRGNGYCG (modifications not checked) [MCoTI-R]

Biological target: T2, porcine trypsin (Porcine), P00761
Experiment: as above

Row | Ki [nM] | Binder
10 | 0.3 | GVCPKILKKCRRDSDCLAGCVCGPNGFCGS (modifications not checked) [SE-MG-0]
11 | 0.4 | KKVGVCPKILKKCRRDSDCPGACICRGNGYCG (modifications not checked) [MCoTI-KKV]
12 | 0.8 | GVCPRILKKCRRDSDCPGACICRGNGYCG (modifications not checked) [MCoTI-R]

biological target: sheep tryptase ST2 (Sheep); experiment: as above
Sequence (Q9XSM2 29-273): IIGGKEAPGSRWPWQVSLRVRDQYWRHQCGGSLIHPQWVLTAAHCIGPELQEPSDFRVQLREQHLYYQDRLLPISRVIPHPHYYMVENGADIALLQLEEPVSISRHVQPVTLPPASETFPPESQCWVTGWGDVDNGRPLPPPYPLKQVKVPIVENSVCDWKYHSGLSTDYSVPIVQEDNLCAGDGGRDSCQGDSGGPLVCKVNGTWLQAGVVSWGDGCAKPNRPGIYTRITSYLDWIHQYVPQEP

Row | Ki [nM] | Binder
13 | 4000 | GVCPKILKKCRRDSDCLAGCVCGPNGFCGS (modifications not checked) [SE-MG-0]
14 | 100 | KKVGVCPKILKKCRRDSDCPGACICRGNGYCG (modifications not checked) [MCoTI-KKV]
15 | 1000 | GVCPRILKKCRRDSDCPGACICRGNGYCG (modifications not checked) [MCoTI-R]

biological target: bovine pancreatic trypsin (bovine), P00760; experiment: enzyme inhibition; residual trypsin activity fitted to tight-binding equation (Morrison); apparent Ki (Kiapp)
Sequence (P00760 24-246): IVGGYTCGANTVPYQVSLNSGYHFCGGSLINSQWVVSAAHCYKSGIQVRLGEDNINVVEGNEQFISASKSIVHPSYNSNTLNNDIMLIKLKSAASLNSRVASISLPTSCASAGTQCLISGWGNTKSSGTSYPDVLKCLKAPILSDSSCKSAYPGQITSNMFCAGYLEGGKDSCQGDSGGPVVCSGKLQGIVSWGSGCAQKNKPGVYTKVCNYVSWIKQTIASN

Row | Ki [nM] | Binder
16 | 0.3 | GVCPKILKKCRRDSDCLAGCVCGPNGFCGS (modifications not checked) [SE-MG-0]
17 | 0.3 | GVCPKILKKCRRDSDCPGACICRGNGYCG (modifications not checked) [SE-MC-K]
18 | 0.4 | GVCPKILKACRRDSDCPGACICRGNGYCG (modifications not checked) [MCoTI-LKAC]
19 | 0.03 | GSVCPKILKKCRRDSDCLAGCVCGPNGFCGS (modifications not checked) [MCoEeTI]
20 | 0.4 | KKVGVCPKILKKCRRDSDCPGACICRGNGYCG (modifications not checked) [MCoTI-KKV]
21 | 0.4 | GVCPKILKRCRRDSDCPGACICRGNGYCG (modifications not checked) [MCoTI-LKRC]
22 | 0.2 | GVCPKILAKCRRDSDCPGACICRGNGYCG (modifications not checked) [MCoTI-LAKC]
23 | 1000 | GVCPGILKKCRRDSDCPGACICRGNGYCG (modifications not checked) [MCoTI-AlaG]
24 | 0.5 | GVCPKILRKCRRDSDCPGACICRGNGYCG (modifications not checked) [MCoTI-LRKC]
25 | 0.8 | GVCPRILKKCRRDSDCPGACICRGNGYCG (modifications not checked) [MCoTI-R]
